Assay results reported in publication PMC2668917.

The substances below were run against GST-tagged Nup358-IR (Nup358 internal repeat/E3 ligase domain) (UniProt P49792) (assay: SPR).

Substance	Kd
SUMO-1 modified His-RanGAP1-NΔ419 (from UniProt P46061 420-589; P63165 1-97)	7 nM
SUMO-1/2 chimera modified His-RanGAP1-NΔ419 (from UniProt P46061 420-589; P63165 1-30; P55854 26-46; P63165 52-97)	20 nM
SUMO-2 modified His-RanGAP1-NΔ419 (from UniProt P46061 420-589; P55854 1-92)	36 nM
